The record followed here is the supplement of paper PMC9112550, “Optimization of the antimicrobial peptide Bac7 by deep mutational scanning” (BMC Biology, 2022).

This data set concerns Escherichia coli TOP10. Put plainly: shrunken log2 fold change of peptide-encoding DNA abundance (4.5 h post-induction vs induction); higher = less antimicrobial activity (less host growth inhibition). The following applies: time post-induction: 4.5 h; library: site-saturation at positions 5, 18, 19, 20.
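Note: peptides expressed intracellularly from a pBAD plasmid library in pooled LB shake-flask culture, induced with 0.3% L-arabinose, DNA abundance read by NGS, three biological replicates, DESeq2 with apeglm shrinkage.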

As for RRIRSRPPRLPRPRPRPSPAPRP, the “shrunken log2 fold change” value was determined as 0.242. Take RRIRSRPPRLPRPRPRPACVPRP: the “shrunken log2 fold change” value came out at 0.224. As for RRIRLRPPRLPRPRPRPMVNPRP, the “shrunken log2 fold change” value is -0.0358. As for RRIRARPPRLPRPRPRPTNLPRP, the “shrunken log2 fold change” value is 0.0653. Then RRIRERPPRLPRPRPRPQNNPRP, with -0.911; and RRIRYRPPRLPRPRPRPEYRPRP, with -0.00979. RRIRTRPPRLPRPRPRPVRDPRP: the “shrunken log2 fold change” value amounted to 0.543. Then RRIRVRPPRLPRPRPRPTLAPRP, with 0.797; and RRIRCRPPRLPRPRPRPHATPRP, with 0.204. Turning to RRIRCRPPRLPRPRPRPGYCPRP, the “shrunken log2 fold change” value is -0.0918. For the sequence RRIRHRPPRLPRPRPRPDMIPRP, the “shrunken log2 fold change” value is -0.0018. Then RRIRVRPPRLPRPRPRPRVSPRP, with 0.205. Then RRIRTRPPRLPRPRPRPFRHPRP, with 0.00803; and RRIRVRPPRLPRPRPRPVTWPRP, with -0.14. RRIRNRPPRLPRPRPRPIWLPRP: the “shrunken log2 fold change” value turned out to be 0.0648. Regarding RRIRMRPPRLPRPRPRPIHMPRP, the “shrunken log2 fold change” value was -0.221. Take RRIRDRPPRLPRPRPRPPMEPRP: the “shrunken log2 fold change” value is -0.0667. In the case of RRIRNRPPRLPRPRPRPCTPPRP, the “shrunken log2 fold change” value is -0.3.

Regarding RRIRHRPPRLPRPRPRPHISPRP, the “shrunken log2 fold change” value is -0.226. Consider RRIRWRPPRLPRPRPRPMGKPRP, for which the “shrunken log2 fold change” value worked out at 0.561. With RRIRVRPPRLPRPRPRPRVEPRP, the “shrunken log2 fold change” value was found to be 0.558.

With RRIRWRPPRLPRPRPRPYQDPRP, the “shrunken log2 fold change” value was -0.411. For RRIRVRPPRLPRPRPRPDMNPRP, the “shrunken log2 fold change” value was -0.548. As for RRIRRRPPRLPRPRPRPMKIPRP, the “shrunken log2 fold change” value was 0.186. In the case of RRIRIRPPRLPRPRPRPTIAPRP, the “shrunken log2 fold change” value was -0.327.

For RRIRERPPRLPRPRPRPLFEPRP, the “shrunken log2 fold change” value was -0.0266. Regarding RRIRKRPPRLPRPRPRPMKRPRP, the “shrunken log2 fold change” value was found to be 0.138. As for RRIRMRPPRLPRPRPRPSHFPRP, the “shrunken log2 fold change” value was -0.274. As to RRIRSRPPRLPRPRPRPFYAPRP, the “shrunken log2 fold change” value is -0.236. With RRIRCRPPRLPRPRPRPQQMPRP, the “shrunken log2 fold change” value was 0.013. Take RRIRHRPPRLPRPRPRPGRNPRP: the “shrunken log2 fold change” value was -0.31. Regarding RRIRDRPPRLPRPRPRPLLPPRP, the “shrunken log2 fold change” value stood at 0.356. As to RRIRARPPRLPRPRPRPNIAPRP, the “shrunken log2 fold change” value turned out to be 0.464. Consider RRIRDRPPRLPRPRPRPHSDPRP, for which the “shrunken log2 fold change” value was -0.115. Turning to RRIRARPPRLPRPRPRPDVFPRP, the “shrunken log2 fold change” value turned out to be 0.176. For the sequence RRIRRRPPRLPRPRPRPKLNPRP, the “shrunken log2 fold change” value turned out to be 0.101. For the sequence RRIRKRPPRLPRPRPRPYFIPRP, the “shrunken log2 fold change” value is -0.515. For RRIRKRPPRLPRPRPRPLNTPRP, the “shrunken log2 fold change” value came out at 0.143. With RRIRDRPPRLPRPRPRPLFSPRP, the “shrunken log2 fold change” value came to 0.0525.

As for RRIRPRPPRLPRPRPRPISGPRP, the “shrunken log2 fold change” value was -0.154. Then RRIRERPPRLPRPRPRPFSIPRP, with 0.00587. For the sequence RRIRFRPPRLPRPRPRPLLFPRP, the “shrunken log2 fold change” value is -0.315.

Consider RRIRVRPPRLPRPRPRPVEPPRP, for which the “shrunken log2 fold change” value was 0.218.

As for RRIRQRPPRLPRPRPRPFFMPRP, the “shrunken log2 fold change” value is -0.129.

Turning to RRIRQRPPRLPRPRPRPEEQPRP, the “shrunken log2 fold change” value was determined as 0.39. Regarding RRIRDRPPRLPRPRPRPCPEPRP, the “shrunken log2 fold change” value is -0.0682. On to RRIRCRPPRLPRPRPRPTQLPRP, for which the “shrunken log2 fold change” value was 0.338. With RRIRIRPPRLPRPRPRPSCEPRP, the “shrunken log2 fold change” value was -0.17. For the sequence RRIRWRPPRLPRPRPRPPNNPRP, the “shrunken log2 fold change” value is -0.0673. Then RRIRARPPRLPRPRPRPCRGPRP, with -0.1. On to RRIRSRPPRLPRPRPRPDTVPRP, for which the “shrunken log2 fold change” value is -0.323. Regarding RRIRSRPPRLPRPRPRPNPWPRP, the “shrunken log2 fold change” value was -0.0604.

For the sequence RRIRMRPPRLPRPRPRPCTPPRP, the “shrunken log2 fold change” value was determined as 0.154. As for RRIRERPPRLPRPRPRPDEAPRP, the figure is 0.323; as for RRIRRRPPRLPRPRPRPTQDPRP, 1.87.

Regarding RRIRVRPPRLPRPRPRPTPTPRP, the “shrunken log2 fold change” value is 0.349. As for RRIRFRPPRLPRPRPRPWAGPRP, the “shrunken log2 fold change” value was determined as 0.116.

On to RRIRRRPPRLPRPRPRPSFLPRP, for which the “shrunken log2 fold change” value was -0.268. On to RRIRGRPPRLPRPRPRPWVPPRP, for which the “shrunken log2 fold change” value was determined as 0.0241. In the case of RRIRLRPPRLPRPRPRPHRSPRP, the “shrunken log2 fold change” value amounted to 0.0989. As for RRIRHRPPRLPRPRPRPCIGPRP, the “shrunken log2 fold change” value is -0.58.

Turning to RRIRQRPPRLPRPRPRPVKIPRP, the “shrunken log2 fold change” value turned out to be 0.352. In the case of RRIRARPPRLPRPRPRPTRCPRP, the “shrunken log2 fold change” value was found to be 1.1. Consider RRIRVRPPRLPRPRPRPPPLPRP, for which the “shrunken log2 fold change” value was determined as 0.669. As for RRIRSRPPRLPRPRPRPSDEPRP, the figure is -0.673. With RRIRPRPPRLPRPRPRPQNKPRP, the “shrunken log2 fold change” value was -0.479. As for RRIRGRPPRLPRPRPRPECLPRP, the “shrunken log2 fold change” value was 0.685. As to RRIRFRPPRLPRPRPRPEYVPRP, the “shrunken log2 fold change” value is -0.15. On to RRIRWRPPRLPRPRPRPVLYPRP, for which the “shrunken log2 fold change” value turned out to be 0.0298. With RRIRARPPRLPRPRPRPFLSPRP, the “shrunken log2 fold change” value is -0.107. Turning to RRIRERPPRLPRPRPRPDYYPRP, the “shrunken log2 fold change” value was -0.603. Take RRIRFRPPRLPRPRPRPAGDPRP: the “shrunken log2 fold change” value amounted to 0.378.

In the case of RRIRGRPPRLPRPRPRPQYHPRP, the “shrunken log2 fold change” value is -0.141. As for RRIRNRPPRLPRPRPRPKNQPRP, the figure is -0.54; as for RRIRRRPPRLPRPRPRPKQYPRP, -0.215; as for RRIRYRPPRLPRPRPRPKCHPRP, -0.139. With RRIRIRPPRLPRPRPRPEGNPRP, the “shrunken log2 fold change” value amounted to 0.0775. Turning to RRIRERPPRLPRPRPRPEDKPRP, the “shrunken log2 fold change” value is -0.034. As for RRIRIRPPRLPRPRPRPNQKPRP, the figure is 0.0249; as for RRIRARPPRLPRPRPRPRCKPRP, 0.51; as for RRIRQRPPRLPRPRPRPVPWPRP, -0.01. Turning to RRIRDRPPRLPRPRPRPERHPRP, the “shrunken log2 fold change” value worked out at 1.06.

For the sequence RRIRKRPPRLPRPRPRPFMEPRP, the “shrunken log2 fold change” value is -0.00271. As for RRIRERPPRLPRPRPRPGNGPRP, the “shrunken log2 fold change” value is -0.0693. In the case of RRIRERPPRLPRPRPRPKYPPRP, the “shrunken log2 fold change” value was -0.00672. Then RRIRARPPRLPRPRPRPKIKPRP, with 0.0665; and RRIRSRPPRLPRPRPRPSWSPRP, with -0.0102. As for RRIRTRPPRLPRPRPRPMIYPRP, the figure is -0.465.

For RRIRARPPRLPRPRPRPNYHPRP, the “shrunken log2 fold change” value was -0.425. Take RRIRCRPPRLPRPRPRPGDEPRP: the “shrunken log2 fold change” value came out at 0.105. For RRIRSRPPRLPRPRPRPCQCPRP, the “shrunken log2 fold change” value was found to be 0.017.

For RRIRERPPRLPRPRPRPCVVPRP, the “shrunken log2 fold change” value was found to be 0.0441.

As for RRIRVRPPRLPRPRPRPHQMPRP, the “shrunken log2 fold change” value was -0.0715. Regarding RRIRDRPPRLPRPRPRPSSRPRP, the “shrunken log2 fold change” value was -0.0968.

On to RRIRPRPPRLPRPRPRPWPLPRP, for which the “shrunken log2 fold change” value turned out to be 0.185. Consider RRIRFRPPRLPRPRPRPFWDPRP, for which the “shrunken log2 fold change” value was -0.374.

Regarding RRIRARPPRLPRPRPRPWGSPRP, the “shrunken log2 fold change” value worked out at 0.115. As for RRIRNRPPRLPRPRPRPCDQPRP, the figure is -0.0229; as for RRIRSRPPRLPRPRPRPCDLPRP, -0.144; as for RRIRERPPRLPRPRPRPDMEPRP, -0.201.

On to RRIRRRPPRLPRPRPRPHTEPRP, for which the “shrunken log2 fold change” value is -0.0233. With RRIRERPPRLPRPRPRPLDWPRP, the “shrunken log2 fold change” value is -0.0749. Regarding RRIRTRPPRLPRPRPRPRGFPRP, the “shrunken log2 fold change” value is 0.732. For the sequence RRIRVRPPRLPRPRPRPSGSPRP, the “shrunken log2 fold change” value is -0.0176.

As to RRIRFRPPRLPRPRPRPTSPPRP, the “shrunken log2 fold change” value amounted to 0.194.

With RRIRFRPPRLPRPRPRPILCPRP, the “shrunken log2 fold change” value was -0.192. With RRIRTRPPRLPRPRPRPTNAPRP, the “shrunken log2 fold change” value came to 0.209. With RRIRFRPPRLPRPRPRPFETPRP, the “shrunken log2 fold change” value is -0.158.

As to RRIRPRPPRLPRPRPRPCLRPRP, the “shrunken log2 fold change” value is -0.183.

Turning to RRIRGRPPRLPRPRPRPIGAPRP, the “shrunken log2 fold change” value worked out at 0.251.

For the sequence RRIRWRPPRLPRPRPRPDKLPRP, the “shrunken log2 fold change” value turned out to be 0.161. As to RRIRNRPPRLPRPRPRPAWIPRP, the “shrunken log2 fold change” value stood at 0.275. For RRIRSRPPRLPRPRPRPCWKPRP, the “shrunken log2 fold change” value is -0.169.

Regarding RRIRARPPRLPRPRPRPKTFPRP, the “shrunken log2 fold change” value is -0.0543. Turning to RRIRCRPPRLPRPRPRPVMCPRP, the “shrunken log2 fold change” value is -0.127. Then RRIRLRPPRLPRPRPRPIFCPRP, with -0.314. With RRIRNRPPRLPRPRPRPDMIPRP, the “shrunken log2 fold change” value is -0.667. As for RRIRMRPPRLPRPRPRPKFQPRP, the figure is 0.549; as for RRIRARPPRLPRPRPRPCAFPRP, 0.303; as for RRIRLRPPRLPRPRPRPAQKPRP, 0.37. As for RRIRDRPPRLPRPRPRPYHPPRP, the “shrunken log2 fold change” value was -0.449. For RRIRMRPPRLPRPRPRPMDNPRP, the “shrunken log2 fold change” value was determined as 0.0672. RRIRSRPPRLPRPRPRPYNEPRP: the “shrunken log2 fold change” value is -0.554. For RRIRRRPPRLPRPRPRPKMVPRP, the “shrunken log2 fold change” value was found to be 0.105. For RRIRYRPPRLPRPRPRPHWSPRP, the “shrunken log2 fold change” value is -0.318.
